For three substances, Ki and cleavage of Ac-DNLD-MCA by in vitro translated S209A active caspase-3, against the wild type (% loss of cleavage activity) results are on record in article PMC1931592.

For assay [1], the target named is Recombinant human caspase-9 (active) (human) (UniProt P55211). The experiment in a line: enzyme inhibition assay (fluorogenic substrate cleavage); one unit of active recombinant human caspase incubated with various concentrations of peptide inhibitor in 100 mM NaCl, 50 mM HEPES, 10 mM DTT, 1 mM EDTA, 10% glycerol, 0.1% CHAPS, pH 7.4, 37°C, 30 min; then 200 μM substrate (Ac-DEVD-MCA for caspases-3 and -7, Ac-IETD-MCA for caspase-8, Ac-LEHD-MCA for caspase-9); apparent Ki = IC50/(1+[S]/Km).

The target of assay [2] is T1, substituted (S209A) active caspase-3 generated by coexpression of HA-p17 and HA-p12 (S209A) subunits (human) (UniProt P42574).
T1 sequence 1: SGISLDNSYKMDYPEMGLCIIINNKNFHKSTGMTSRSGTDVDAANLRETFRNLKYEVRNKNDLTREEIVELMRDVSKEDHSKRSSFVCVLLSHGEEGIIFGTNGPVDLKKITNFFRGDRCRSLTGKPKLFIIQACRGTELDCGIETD
T1 sequence 2: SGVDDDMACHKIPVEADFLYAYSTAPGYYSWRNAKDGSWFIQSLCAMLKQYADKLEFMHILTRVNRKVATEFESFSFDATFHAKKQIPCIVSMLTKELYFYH

Chain of Recombinant human caspase-9 (active) (human) (P55211 whole entry): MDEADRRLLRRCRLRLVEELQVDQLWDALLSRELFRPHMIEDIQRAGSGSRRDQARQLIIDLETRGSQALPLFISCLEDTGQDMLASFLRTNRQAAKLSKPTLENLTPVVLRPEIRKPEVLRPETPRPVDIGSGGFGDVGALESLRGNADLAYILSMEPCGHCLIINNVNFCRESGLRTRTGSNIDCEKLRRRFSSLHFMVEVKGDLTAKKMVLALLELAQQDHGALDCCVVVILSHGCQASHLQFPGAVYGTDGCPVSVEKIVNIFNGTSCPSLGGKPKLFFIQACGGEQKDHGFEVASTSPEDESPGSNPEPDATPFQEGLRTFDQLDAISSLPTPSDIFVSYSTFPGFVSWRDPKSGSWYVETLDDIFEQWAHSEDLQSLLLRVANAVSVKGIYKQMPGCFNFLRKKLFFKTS

On to Ac-DNLD-CHO (peptide), for which the Ki in assay [1] was greater than 200 nM.
On the same count and under the same terms, then Ac-DEVD-CHO (peptide), with 1.35 nM.
Consider Ac-DNLD-MCA (peptide), for which, in assay [2], the cleavage of Ac-DNLD-MCA by in vitro translated S209A active caspase-3, against the wild type (% loss of cleavage activity) is greater than 60.
